From patent publication US20220396631A1 (Novartis, published 2022)

T1: human BCMA (human, UniProt Q02223 1-54, limits assumed)
T1 construct: also called B-cell maturation antigen; TNFRSF17
T1 sequence (looked up): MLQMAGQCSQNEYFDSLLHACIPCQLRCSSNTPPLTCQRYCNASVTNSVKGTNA


Each binder was assayed against T1, human BCMA (assay: affinity maturation of PI-61).

Binder	binding result
H2/L2-36 (antibody, V domains shown, AB3 family) VH: QAQLQSSGGGVVQPGRSLRLSCAASGFTFSSYGMHWVRQAPGKGLEWVAVISYKGSNKYYADSVKGRFTISRDNSKNTLYLQMNSLRAEDTAVYYCGGSGYALHDDYYGLDVWGQGTLVTVSS VL: QSALTQPASVSGSPGQSITISCTGTSSDVGGYNYVSWYQQHPGKAPKLMIYEVSNRLRGVSNRFSGSKFGNTASLTISGLQAEDEADYYCSSYTSSSTLYVFGSGTKVTVL	binds
H2/L2-80 (antibody, V domains shown, AB3 family) VH: QVQLQSSGGGVVQPGRSLRLSCAASGFTFSSYGMHWVRQAPGKGLEWVAVISYTGSNKYYADSVKGRFTISRDNSKNTLYLQMNSLRAEDTAVYYCGGSGYALHDDYYGLDVWGQGTLVTVSS VL: QSALTQPASVSGSPGQSITISCTGTSSDVGGYNYVSWYQQHPGKAPKLMIYDVSNRAWGVSNRFSGSKFGNTASLTISGLQAEDEADYYCSSYTSSSALYVFGSGTKVTVL	binds
H3-2 (antibody, V domains shown, AB3 family) VH: QAQLQESEGGVVQPGGSLRLSCAASGFTFSSYGMHWVRQAPGKGLEWVAVISYNDLNKYYADSVKGRFTISRDNSKNTLYLQMNSLRAEDTAVYYCGGSGYALHDFQDPTDVWGQGTLVTVSS VL: QSALTQPASVSGSPGQSITISCTGTSSDVGGYNYVSWYQQHPGKAPKLMIYEVSNRLRGVSNRFSGSKFGNTASLTISGLQAEDEADYYCSSYTSSSTLYVFGSGTKVTVL	binds
H3-9 (antibody, V domains shown, AB3 family) VH: QVQLQGSGGGVVQPGRSLRLSCAASGFTFSSYGMHWVRQAPGKGLEWVAVISYDDAHKYYADSVKGRFTISRDNSKNTLYLQMNSLRAEDTAVYYCGGSGYALHDQYKPVDVWGQGTLVTVSS VL: QSALTQPASVSGSPGQSITISCTGTSSDVGGYNYVSWYQQHPGKAPKLMIYEVSNRLRGVSNRFSGSKFGNTASLTISGLQAEDEAYYYCSSYTSSSTLYVFGSGTKVTVL	binds
H2/L2-47 (antibody, V domains shown, AB3 family) VH: QVQLQSSEGGVVQPGRSLRLSCAASGFTFSSYGMHWVRQAPGKGLEWVAVISYKGSNKYYADSVKGRFTISRDNSKNTLYLQMNSLRAEDTAVYYCGGSGYALHDDYYGLDVWGQGTLVTVSS VL: QSALTQPASVSGSPGQSITISCTGTSSDVGGYNYVSWYQQHPGKAPKLMIYDVSNRPWGVSNRFSGSKFGNTASLTISGLQAEDEADYYCSSYTSSSTLYVFGSGTKVTVL	binds
H3-4 (antibody, V domains shown, AB3 family) VH: QVQLQGSGGGVVQPGRSLRLSCAASGFTFSSYGMHWVRQAPGKGLEWVAVISYDDAHKYYADSVKGRFTISRDNSKNTLYLQMNSLRAEDTAVYYCGGSGYALHDQYKPVDVWGQGTLVTVSS VL: QSALTQPASVSGSPGQSITISCTGTSSDVGGYNYVSWYQQHPGKAPKLMIYEVSNRLRGVSNRFSGSKFGNTASLTISGLQAEDEADYYCSSYTSSSALYVFGSGTKVTVL	binds
H3-7 (antibody, V domains shown, AB3 family) VH: QVQLQSSEGGVVQPGRSLRLSCAASGFTLSSYGMHWVRQAPGKGLEWVAVISYTGSNKYYADSVKGRFTISRDNSKNTLYLQMNSLRAEDTAVYYCGGSGYEFHEDYYGLDVWGQGTLVTVSS VL: QSALTQPASVSGSPGQSITISCTGTSSDVGGYNYVSWYQQHPGKAPKLMIYEVSNRLRGVSNRFSGSKFGNTASLTISGLQAEDEADYYCSSYTSSSTLYVFGSGTKVTVL	binds
H3-5 (antibody, V domains shown, AB3 family) VH: QVQLQGSGGGVVQPGRSLRLSCAASGFTFSSYGMHWVRQAPGKGLEWVAVISYTGANKYYADSVKGRFTISRDNSKNTLYLQMNSLRAEDTAVYYCGGSGYNLHDDYYGLDVWGQGTLVTVSS VL: QSALTQPASVSGSPGQSITISCTGTSSDVGGYNYVSWYQQHPGKAPKLMIYEVSNRLSGVSNRFSGSKFGNTASLTISGLQAEDEADYYCSSYTSSSTLYVFGSGTKVTVL	binds
H2/L2-20 (antibody, V domains shown, AB3 family) VH: QAQLQSSGGGVVQPGRSLRLSCAASGFTVSSYGMHWVRQAPGKGLEWVAVISYTGSNKYYADSVKGRFTISRDNSKNTLYLQMNSLRAEDTAVYYCGGSGYALHDDYYGLDVWGQGTLVTVSS VL: QSALTQPASVSGSPGQSITISCTGTSSDVGGYNYVSWYQQHPGKAPKLMIYDVSNRLRGVSNRFSGSKFGNTASLTISGLQAEDEADYYCSSYTSSSALYVFGSGTKVTVL	binds
H2/L2-18 (antibody, V domains shown, AB3 family) VH: QAQLQGSGGGVVQPGRSLRLSCAASGFTFSSYGMHWVRQAPGKGLEWVAVISYKGSHKYYADSVKGRFTISRDNSKNTLYLQMNSLRAEDTAVYYCGGSGYALHDDYYGLDVWGQGTLVTVSS VL: QSALTQPASVSGSPGQSITISCTGTSSDVGGYNYVSWYQQHPGKAPKLMIYDVSNRPWGVSNRFSGSKFGNTASLTISGLQAEDEADYYCSSYTSSSTLYVFGSGTKVTVL	binds
H3-12 (antibody, V domains shown, AB3 family) VH: QAQLQSSEGGVVQPGRSLRLSCAASGFTFSSYGMHWVRQAPGKGLEWVAVISYDESNKYYADSVKGRFTISRDNSKNTLYLQMNSLRAEDTAVYYCGGSGYEVDQDYYGLDVWGQGTLVTVSS VL: QSALTQPASVSGSPGQSITISCTGTSSDVGGYNYVSWYQQHPGKAPKLMIYEVSNRLRGVSNRFSGSKFGNTASLTISGLQAEDEADYYCSSYTSSSTLYVFGSGTKVTVL	binds
H2/L2-88 (antibody, V domains shown, AB3 family) VH: QVQLQSSEGGVVQPGRSLRLSCAASGFTFSSYGMHWVRQAPGKGLEWVAVISYKGSNKYYADSVKGRFTISRDNSKNTLYLQMNSLRAEDTAVYYCGGSGYALHDDYYGLDVWGQGTLVTVSS VL: QSALTQPASVSGSPGQSITISCTGTSSDVGGYNYVSWYQQHPGKAPKLMIYEVSNRLRGVSNRFSGSKFGNTASLTISGLQAEDEADYYCSSYTSSSALYVFGSGTKVTVL	binds
H3-11 (antibody, V domains shown, AB3 family) VH: QVQLQSSEGGVVQPGRSLRLSCAASGFTFSSYGMHWVRQAPGKGLEWVAVISYNDANKYYADSVKGRFTISRDNSKNTLYLQMNSLRAEDTAVYYCGGSGYELRDDYYGLDVWGQGTLVTVSS VL: QSALTQPASVSGSPGQSITISCTGTSSDVGGYNYVSWYQQHPGKAPKLMIYEVSNRLRGVSNRFSGSKFGNTASLTISGLQAEDEADYYCSSYTSSSTLYVFGSGTKVTVL	binds
H2/L2-68 (antibody, V domains shown, AB3 family) VH: QAQLQSSEGGVVQPGRSLRLSCAASGFTFSSYGMHWVRQAPGKGLEWVAVISYRGFNKYYADSVKGRFTISRDNSKNTLYLQMNSLRAEDTAVYYCGGSGYALHDDYYGQDVWGQGTLVTVSS VL: QSALTQPASVSGSPGQSITISCTGTSSDVGGYNYVSWYQQHPGKAPKLMIYDVSNRLSGVSNRFSGSKFGNTASLTISGLQAEDEADYYCSSYTSSSTLYVFGSGTKVTVL	binds
H3-1 (antibody, V domains shown, AB3 family) VH: QVQLQGSGGGVVQPGRSLRLSCAASGFTFSSYGMHWVRQAPGKGLEWVAVISYDDAHKYYADSVKGRFTISRDNSKNTLYLQMNSLRAEDTAVYYCGGSGYALHDQYKPVDVWGQGTLVTVSS VL: QSALTQPASVSGSPGQSITISCTGTSSDVGGYNYVSWYQQHPGKAPKLMIYEVSNRLRGVSNRFSGSKFGNTASLTISGLQAEDEADYYCSSYTSSSTLYVFGSGTKVTVL	binds
H3-10 (antibody, V domains shown, AB3 family) VH: QVQLQSSGGGVVQPGRSLRLSCAASGFTFSSYGMHWVRQAPGKGLEWVAVISYNDLNKYYADSVKGRFTISRDNSKNTLYLQMNSLRAEDTAVYYCGGSGYEFQGDYYGLDVWGQGTLVTVSS VL: QSALTQPASVSGSPGQSITISCTGTSSDVGGYNYVSWYQQHPGKAPKLMIYEVSNRLRGVSNRFSGSKFGNTASLTISGLQAEDEADYYCSSYTSSSTLYVFGSGTKVTVL	binds
AB3 (antibody, V domains shown, AB3 family) VH: QVQLVESGGGVVQPGRSLRLSCAASGFTVSSYGMHWVRQAPGKGLEWVAVISYTGSNKYYADSVKGRFTISRDNSKNTLYLQMNSLRAEDTAVYYCGGSGYALHDDYYGLDVWGQGTLVTVSS VL: QSALTQPASVSGSPGQSITISCTGTSSDVGGYNYVSWYQQHPGKAPKLMIYDVSNRLRGVSNRFSGSKSGNTASLTISGLQAEDEADYYCSSYTSSSALYVFGSGTKVTVL	binds
H3-6 (antibody, V domains shown, AB3 family) VH: QAQLQRSGGGVVQPGRSLRLSCAASGFTFSSYGMHWVRQAPGKGLEWVAVISYDDAHKYYADSVKGRFTISRDNSKNTLYLQMNSLRAEDTAVYYCGGSGYALHDQYKPVDVWGQGTLVTVSS VL: QSALTQPASVSGSPGQSITISCTGTSSDVGGYNYVSWYQQHPGKAPKLMIYEVSNRLRGVSNRFSGSKFGNTASLTISGLQAEDEADYYCSSYTSSSALYVFGSGTKVTVL	binds
H3-3 (antibody, V domains shown, AB3 family) VH: QVQLQSSGGGVVQPGRSLRLSCAASGFTVSSYGMHWVRQAPGKGLEWVAVISYSGSNKYYADSVKGRFTISRDNSKNTLYLQMNSLRAEDTAVYYCGGSGYALHDQYKPVDVWGQGTLVTVSS VL: QSALTQPASVSGSPGQSITISCTGTSSDVGGYNYVSWYQQHPGKAPKLMIYEVSNRLRGVSNRFSGSKFGNTASLTISGLQAEDEADYYCSSYTSSSTLYVFGSGTKVTVL	binds
H2/L2-83 (antibody, V domains shown, AB3 family) VH: QAQLQGSGGGVVQPGRSLRLSCAASGFTFSSYGMHWVRQAPGKGLEWVAVISYKGSNKYYADSVKGRFTISRDNSKNTLYLQMNSLRAEDTAVYYCGGSGYALHDDYYGLDVWGQGTLVTVSS VL: QSALTQPASVSGSPGQSITISCTGTSSDVGGYNYVSWYQQHPGKAPKLMIYEVSNRLRGVSNRFSGSKFGNTASLTISGLQAEDEADYYCSSYTSSSTLYVFGSGTKVTVL	binds
H3-8 (antibody, V domains shown, AB3 family) VH: QAQLQGSEGGVVQPGRSLRLSCAASGFTFSSYGMHWVRQAPGKGLEWVAVISYDDAHKYYADSVKGRFTISRDNSKNTLYLQMNSLRAEDTAVYYCGGSGYALHDQYKPVDVWGQGTLVTVSS VL: QSALTQPASVSGSPGQSITISCTGTSSDVGGYNYVSWYQQHPGKAPKLMIYEVSNRLRGVSNRFSGSKFGNTASLTISGLQAEDEADYYCSSYTSSSTLYVFGSGTKVTVL	binds
